US20190085055A1
One block for each substance: values may come before it.

How the values were obtained:
[1] = target: D3H44 light chain Q160K_T178R (Table 8); experiment: LCCA: H1 co-expressed with L1 and L2, SPR read-out of light chain tags; competing chain L1
[2] = target: D3H44 light chain Q124E_Q160E_T178D; experiment: LCCA (SPR), competitor L2 Q160K_T178R
[3] = target: D3H44 light chain Q160K_T178R (Table 8); experiment: LCCA (SPR), competitor L1 Q124E_Q160E_T178D
[4] = target: D3H44 light chain Q124E_Q160E_T178D; experiment: LCCA: H1 co-expressed with L1 and L2, SPR read-out of light chain tags; competing chain L2
[5] = target: D3H44 light chain Q160K_T178R (Table 8); experiment: LCCA: H2 co-expressed with L1 and L2, SPR read-out of light chain tags; competing chain L1
[6] = target: D3H44 light chain Q124E_Q160E_T178D; experiment: LCCA: H2 co-expressed with L1 and L2, SPR read-out of light chain tags; competing chain L2
D3H44 light chain Q38R [7] = experiment: LCCA (SPR), competitor L1 Q38D
D3H44 light chain F98A = experiment: LCCA (SPR), competitor L1 Q38E
D3H44 light chain Q38R [8] = experiment: LCCA (SPR), competitor L1 Q38E
D3H44 light chain Q38R [9] = experiment: LCCA (SPR), competitor L2 Q38D
D3H44 light chain Q38R [10] = experiment: LCCA: H2 co-expressed with L1 and L2, SPR read-out of light chain tags; competing chain L2

H1 Readout (H1-L2) [1]: 1
H1 L1 of H1 L1:H1 L2 (screen) [2]: 86.7
H1 L1 of H1 L1:H1 L2 (verification) [2]: 97
H1 L2 of H1 L1:H1 L2 (screen) [3]: 1.4
H1 L2 of H1 L1:H1 L2 (verification) [3]: 0.9
H1 Readout (H1-L1) [4]: 93
Substance: D3H44 heavy chain (Fab format) D146G_Q179R

H2 L1 of H2 L2:H2 L1 (screen) [2]: 7.2
H2 L1 of H2 L2:H2 L1 (verification) [2]: 20
H2 Readout (H2-L2) [5]: 83
H2 L2 of H2 L2:H2 L1 (screen) [3]: 71
H2 L2 of H2 L2:H2 L1 (verification) [3]: 74.3
H2 Readout (H2-L1) [6]: 24
Substance: D3H44 heavy chain (Fab format) K145T_Q179D_S188L

H1 L2 of H1 L1:H1 L2 (screen) (D3H44 light chain Q38R [7]): 10.8
H1 L2 of H1 L1:H1 L2 (screen) (D3H44 light chain F98A): 4.3
H1 L2 of H1 L1:H1 L2 (verification) (D3H44 light chain F98A): 4
H1 L2 of H1 L1:H1 L2 (screen) (D3H44 light chain Q38R [8]): 22.7
H1 L2 of H1 L1:H1 L2 (verification) (D3H44 light chain Q38R [8]): 8.4
H2 L1 of H2 L2:H2 L1 (verification) (D3H44 light chain Q38R [9]): 11.1
H2 Readout (H2-L1) (D3H44 light chain Q38R [10]): 1
Substance: D3H44 heavy chain (Fab format) Q39R
